Results: PMC12025097, “Elucidation of Expression Patterns and Functional Properties of Archaerhodopsin Derived from Halorubrum sp. Ejinoor” (Biology, 2025)
Each block holds one molecule with its values, some of them ahead of it.

How the values were obtained:
[1] = target: T1, BR (Halobacterium salinarum, UniProt P02945); experiment: HPLC of chromophore extracted from purified protein; type: binding; settings: covalent; Schiff base to Lys216; dark- and light-adapted; 0.05% DDM, 10 mM HEPES, pH 7.5
T1 construct: gene bop; native BR from Hs by sucrose density gradient; text also mentions Ni-NTA purification and a vector-cloned BR from E. coli
T1 sequence (P02945 14-262): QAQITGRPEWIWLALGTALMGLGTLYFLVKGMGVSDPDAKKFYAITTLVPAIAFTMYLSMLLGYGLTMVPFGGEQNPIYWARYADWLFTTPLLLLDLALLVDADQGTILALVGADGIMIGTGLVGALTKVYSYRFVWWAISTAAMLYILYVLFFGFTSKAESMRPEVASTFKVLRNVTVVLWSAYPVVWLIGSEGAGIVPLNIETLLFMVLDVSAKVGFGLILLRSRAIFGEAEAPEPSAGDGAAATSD

[2] = target: Halorubrum sp. Ejinoor Archaerhodopsin (Halorubrum sp. Ejinoor); experiment: SEC; Superdex 200 10/300 GL, 25 °C, 10 mM HEPES pH 7.5, 100 mM NaCl, 0.05% DDM, 0.5 mL/min, detection at 280 and 560 nm; apparent mass from calibration standards, trimer deduced after allowing for bound DDM
[3] = target: Asp95 (UniProt position 95, YARYADWLFTT); experiment: UV-vis; settings: not stated (six-component buffer said to keep ionic strength constant); citric acid/MES/HEPES/MOPS/CHES/CAPS, each 10 mM; retinal-bound, detergent-solubilised trimer; steady-state titration; light or dark adaptation state not stated
[4] = target: Asp85 (UniProt position 98, WARYADWLFTT); settings: cited from earlier work
[5] = target: Bacteriorhodopsin (Halobacterium salinarum) (UniProt P02945); experiment: SEC; Superdex 200 10/300 GL, 25 °C, 10 mM HEPES pH 7.5, 100 mM NaCl, 0.05% DDM, 0.5 mL/min, detection at 280 and 560 nm; apparent mass from calibration standards, trimer deduced after allowing for bound DDM

Molecule: CC1=C(/C=C/C(C)=C/C=C/C(C)=C\C=O)C(C)(C)CCC1 [13-cis retinal]
HPLC of chromophore extracted from purified protein [1]: both HeAR and BR contain only two retinal chromophore isomers: All-trans and 13-cis

Molecule: CC1=C(/C=C/C(C)=C/C=C/C(C)=C/C=O)C(C)(C)CCC1 [All-trans retinal]
HPLC of chromophore extracted from purified protein [1]: both HeAR and BR contain only two retinal chromophore isomers: All-trans and 13-cis

stoichiometry N [2]: 3
Molecule: Halorubrum sp. Ejinoor Archaerhodopsin (natural protein)

Molecule: Archaerhodopsin HeAR (Halorubrum sp. Ejinoor)
pKa [3]: 3.5 ± 0.1

Molecule: Bacteriorhodopsin (BR) (Halobacterium salinarum)
pKa [4]: ~2.6

stoichiometry N [5]: 3
Molecule: Bacteriorhodopsin (from UniProt P02945 14-262) (natural protein)
